{
  "source": "the domain aggregation screens of Martell et al. (2025)",
  "data": [
    {"assay": "soluble fraction after stress (log2 fold change); higher = more stays soluble; pooled small domains, quantitative proteomics", "settings": "stress: 75 degC", "values": [
      {"sequence": "HMNTPALRQRTQDVPALLIHFAKYFATKGQTPISFAPDFLEALKDYPWPGNVRELRNLVESMVV", "soluble fraction (log2)": -0.133},
      {"sequence": "HMNTPHLTPREREVLKGIVDGLINKEIAARMGVSVATVITHRNNLTEKLGTRSVSALTIFAVMHGIVR", "soluble fraction (log2)": -2.55},
      {"sequence": "HMNTPNYDVLYRGLADADAGQIMEALQKSNIPFKVDSHSGVLLVPADQVHEARLKLASQGLPRG", "soluble fraction (log2)": -0.119},
      {"sequence": "HMNTPTLLLYGGKDHSVPEAGIRHLRAHLSANDRGEYRFYPNAPHLLLQSRQWQQVSQDISQWLAMT", "soluble fraction (log2)": 0.037},
      {"sequence": "HMNTRWDDAAQTWLRKVIEQQPVLVQISAAKRLRDQAEQRAREAGEEVVTEQHVKRAGLELGFGEP", "soluble fraction (log2)": 0.0588},
      {"sequence": "HMNTSITVPSLKGLSQEAATLKMERLGLHVEVSDTGFVRSLAFGTVLQQSIAPGEKVKPGRLVYITINSD", "soluble fraction (log2)": -2.2},
      {"sequence": "HMNTVAGAISDLSFKVRGSEDIEKLNRLKALSIQAKLDVQGQEEAERLISELEAKYGSLGMTVDKVSGKIA", "soluble fraction (log2)": 0.0323},
      {"sequence": "HMNTYEIIGGDNRARGPVTGEELSQWIREGRASGHTMARVSDGEHWQPLGSFPEFVGPLQGLPW", "soluble fraction (log2)": 0.0698},
      {"sequence": "HMNTYVLPDALKSQLSVEDTGMLTKQLQALPETLAEGVLDSLSQMLSKNTLQNPVGWMLAVMKRAREGNFN", "soluble fraction (log2)": -0.305},
      {"sequence": "HMNVAVSEADAKAAALERVSGATEADIRMELELDDGYYVYEGDIIYQQKEYEFEIDAQTGKFLKWSEER", "soluble fraction (log2)": -0.121},
      {"sequence": "HMNVDLLEARIPIQSHGMRLDQVVAELFPDYSRNRLAAWIKEGRLTVDGKTMKPRDRALASAHVVLEVV", "soluble fraction (log2)": -0.3},
      {"sequence": "HMNVGKYILTLAAKEGYSQSDVARRTGISRQMLSYIIAGERKLTLPQALKIESLLSLKTGTLILMQDED", "soluble fraction (log2)": -3.35},
      {"sequence": "HMNVNEIREMYPEGTQIVLTEMRGENQMPYGLKGTVKFVDDAGQIHMKWENGSSLALNINEDTFEKVE", "soluble fraction (log2)": 0.91},
      {"sequence": "HMNVPATAEAYEALLADAESVGKSLWGHEAKRFAAEQALLSAGLREVIQVDPDKARELALRLRGLLDEYRG", "soluble fraction (log2)": 0.19},
      {"sequence": "HMNVQGFVFDLAEPLDKVPSIEGFPLKLEDPLTLVAAVNKDRSINALFAELSKLNIKIKSMRNE", "soluble fraction (log2)": -0.0601},
      {"sequence": "HMNVVSIEHIRTHLQNHLSLIGRSIEESFNEAKVIAFVASLFLTHRGYASVSQDMGTNGEIYLQDLW", "soluble fraction (log2)": -0.465},
      {"sequence": "HMNVWGLSERELEATRLLIEGFSSKEASARMGISPSTVRSLWGRARAKMGVDSIEDARELVA", "soluble fraction (log2)": -0.415},
      {"sequence": "HMNYAVTAARRESILNAALEIFGKSGYNGSSVKQVALAVGMTEAGVLHHFGTKSNLLIEVLRV", "soluble fraction (log2)": 0.396},
      {"sequence": "HMNYLDVNIPVTSAVWMGKQLPEMGTLIYLTPDKDVEGMLFIKQATKDKPDGEYIEAKVLGYKEGRVLFDF", "soluble fraction (log2)": -0.964},
      {"sequence": "HMPAEEVPLYKAVVVTTPPNRLRVRFSPAGDFKRWLQSGEEVDVYQELGDWRRIEPNGWSSAEWLQRVG", "soluble fraction (log2)": -0.465},
      {"sequence": "HMPAGWIPARIRLADYPQLRSLAWHVQGIDTLTPTEALDIYERNARHLDAQAMSAQEQDLLASLRLALS", "soluble fraction (log2)": -0.888},
      {"sequence": "HMPALPGNELLRNLMLEHGLKQVDLAEIGSQGVVSEILSGKRRINRRHADLLARRFSLPAELFSR", "soluble fraction (log2)": -0.217},
      {"sequence": "HMPANLTPDYFKAEQWYRSASTNEEKMLALEQMLAVMPKHKGTEHLQADLKRKLSQLKDASAQ", "soluble fraction (log2)": 0.19},
      {"sequence": "HMPAPAPDIPYHSRVSVRRADGFYEGTWTNTAPILDYTGRWMVNVSLGGKRVFVPVEEVVVH", "soluble fraction (log2)": -1.05},
      {"sequence": "HMPAPKPSGALSLKDEPLYAASDSKRRSGTVSGTYYRWDGENVNGRMRITNKQENIGKAGQVTGWITAH", "soluble fraction (log2)": 0.0409},
      {"sequence": "HMPASTSIPYSDFISRVESGDVQEAKIGESAITGTYKDGSQFKTVKPPTLDTNLMPTLIQNKVNVVGVEP", "soluble fraction (log2)": 0.176},
      {"sequence": "HMPAVGGVVKGAVVSVGRNEVRLDIGGLAIGIIRGPELDKHVDLRIGDEVEATVITLDNEFGELELSL", "soluble fraction (log2)": -1.37},
      {"sequence": "HMPAVTEQTKTNLRRAFWQLYEQKPIQKITVKQITDLAGYNRGTFYLYFKDVYDLLDDIENK", "soluble fraction (log2)": -1.09},
      {"sequence": "HMPAVTEQTRANLRTAFWSLYREKPTSKITVREITDRAGYNRATFYLYYRDVYDLFEQIEQEIL", "soluble fraction (log2)": -2.37},
      {"sequence": "HMPDAGQRRYLELVTALAGARSLTIDDLERRAIRFAEWGNGYSGRTARQFIDTLLQDRGVAEEL", "soluble fraction (log2)": -0.731},
      {"sequence": "HMPDAIPLETIIKNVNVLAGFLINSKTFTEDDIVMAYNNIMKIKGDHTDEKTLTNDVYTLLTEMN", "soluble fraction (log2)": -0.714},
      {"sequence": "HMPDIFDRGTAHITDAASGVAITFTRTFRIPPEVTMTHKGGTVVAIARLVGSITTGGFTAVLENT", "soluble fraction (log2)": 0.0362},
      {"sequence": "HMPDLQDTLYRLVPEDGSAIGNQSLREKFLSTAKDASDADFEAARDGLVEQGKLTKGKGRGGSVRRAEP", "soluble fraction (log2)": 0.551},
      {"sequence": "HMPDLSMLDEVLDEYRSQAGSLVTVLQKAQDLYGYLPLTILRHIAEEMNIKPAQVYGVATFYTQFRL", "soluble fraction (log2)": 0.0378},
      {"sequence": "HMPDRQKDIQNWQQIAETLLNMLDKYVAALETGKTGLAEAYKAIFAETLRRLDDRLDPEQFLP", "soluble fraction (log2)": -1.91},
      {"sequence": "HMPDTETLTPRQRQILDLVQELGFTTIETLAERFGVSAQTVRREIIRLQAGNFLQRFHGGAGLASGGIRSA", "soluble fraction (log2)": -1.24},
      {"sequence": "HMPDYAFEGVVIKLTHRDYDRWKAGFPDVDLPPYLTARDAWLSEQTPADRKNWFVSTATDLRNFQKREAI", "soluble fraction (log2)": -1.26},
      {"sequence": "HMPEDQISYTDLIKQINDGNVEKIKMTVGSTTIKVNLKEQEEPKTAIVPSTQAFIELVQEKVQDGNEITLI", "soluble fraction (log2)": 0.164},
      {"sequence": "HMPEITPAMIKALLSSLSEELAFASVTKVYAVLHNLFKAALLDDTIDRNPMDKVPRPRKSKDAAL", "soluble fraction (log2)": -0.576},
      {"sequence": "HMPELPEVETSRRGIEPHLVGATILHAVVRNGRLRWPVSEEIYRLSDQPVLSVQRRAKYLLLELQA", "soluble fraction (log2)": 0.0647},
      {"sequence": "HMPELSPEERAIIETLQKNNDLQVNIIAIKTGMDMGSLSAVLFDLEMKGLVKLLAGGMYHLI", "soluble fraction (log2)": -0.66},
      {"sequence": "HMPEPAPALPAKTRVSIRRETGGIIWHEGAWTISPPIRAYDGRWYVAVTTARKGIEFVPVSSVIRS", "soluble fraction (log2)": -2.18},
      {"sequence": "HMPEPMKLSDLPPELWQRVSDLFDEVIDLPETDRIPYIRNLWGSEPLVAKELMALLVAAANVD", "soluble fraction (log2)": -0.452},
      {"sequence": "HMPESFSEMQKRTGVGEFSDDALSAKYVDSIDADVMSLDEYIMKVRGISLDDLEAERALRAR", "soluble fraction (log2)": 0.0969},
      {"sequence": "HMPETAQLTDIQVSRSQAHTGIFSLHYYLTGTDSRGERVRLEISGDDYTRLSGSSSVTVEYYRHTGRIVRY", "soluble fraction (log2)": -1.16},
      {"sequence": "HMPETYVVFSKDGYANLRRGTTINSEILDVLDNGEYVTKLDEVGEWYRVEYADFDGGYIHKSQLKNI", "soluble fraction (log2)": -0.288},
      {"sequence": "HMPFDRTVQLAGARARQLQALPRYREVLRLLDEGMNPREIGQVLDPPVTRQRASALIQQAKRAQMLGLFED", "soluble fraction (log2)": -1.04},
      {"sequence": "HMPFNLKSLADRLSHVFPGLVKMRDDIGAIIVMDKIKVTEHGVTEGGGLAADRVRAVYNEFIKEY", "soluble fraction (log2)": -0.247},
      {"sequence": "HMPFSLHGVNEGSRNDNAARIAGYLISKNLNLDFVRIFLHNWNRDNKPPLPQQEIDSVVDNVKKTHDRKN", "soluble fraction (log2)": -2.09},
      {"sequence": "HMPGEATVPSVIGMTKAEAKAKLQASGFELGYSEFVASDKPKGEIVEQDPGAGETAKGGTEVNVKISDGS", "soluble fraction (log2)": 0.0718},
      {"sequence": "HMPGLDTTILSDILSLKKELPSRSAAKILIMLILAKRIEEGSLNLRTINRILNQYGYTRESLL", "soluble fraction (log2)": 0.144},
      {"sequence": "HMPGLQSVTPAELKIGMYVILPLAWDEHPFLKNHFLIQSEAQINKIRELGTKGIQIDLSKSHP", "soluble fraction (log2)": -1.9},
      {"sequence": "HMPGMLVVYVTGAVRQPGRMVTLAAGSRVSDAIDAAGGLADDADAQALNLSARLNDGDLVHVPSALD", "soluble fraction (log2)": -0.264},
      {"sequence": "HMPHILEITSSKILDELQDEKKMVYFHFEKQSNQYVYRLIFNSKNELMEFKKSLEKNSSILDVRADM", "soluble fraction (log2)": -1.81},
      {"sequence": "HMPHITDAEWEVMRVVWANHHVTSKEVISILEDKMNWKATTIKTLLGRLVEKGALSTEQDGKKFIYTAR", "soluble fraction (log2)": -1.6},
      {"sequence": "HMPHTDATDKQIIALILETLKDGQKHSVSEMTFPGIPREKTAQLLHQMIEEETVRIQNGVLFLPH", "soluble fraction (log2)": 0.00795},
      {"sequence": "HMPIDNTLLSRITSLGVSTTEAEKLISKHGEEALKANLEVVEERLSKPNLPLLDSPAAYLKTALKNG", "soluble fraction (log2)": 0.415},
      {"sequence": "HMPIEQVEVPNLTNMTREEAESTLTSLNLKAQVHEEANEADEGKVFKQGTNTGEMVDEGSTIEIWVS", "soluble fraction (log2)": -0.549},
      {"sequence": "HMPIHAGERLTLRLAGEGREAGQAIGYLEDGTLVIVERARHLIGQDVTVEVTRTLQTAGGRLVFAHLVE", "soluble fraction (log2)": -1.1},
      {"sequence": "HMPKDLEKRAAILAAAKHLFPVHGFEGTSMDAIAALANVSKLTVYSHFKDKESLFTEAIREK", "soluble fraction (log2)": -0.0647},
      {"sequence": "HMPKDMAKRASILTAASKLFVQHGYGGVSMDQIAAEAGVSKLTVYSHYGDKDSLFAAAVQAH", "soluble fraction (log2)": -0.617},
      {"sequence": "HMPKELAPYDILARYYLTVNNSKQSIALLEQYLDKAGSAPAALKAKLLLAGILYPSGNKERAEKLVEEVIK", "soluble fraction (log2)": -0.463},
      {"sequence": "HMPKETFLNLDEEKRQAIINVLLKNFSEQHISQVKVSAIVSGIGMSRGAFYKYFEDLEDAYRFTISYFSA", "soluble fraction (log2)": 0.147},
      {"sequence": "HMPKLTKEEIQFIDNYLKNSGVEYIDTRAEVVDHVASEIESRLSANNTTNFYEEFKVYMVQHKETLLK", "soluble fraction (log2)": -0.21},
      {"sequence": "HMPKLVGEVMQTLDALRREKGLSLLLVEQNARAALGVVDRVYVLERGRVVFEGSAKEAMEDQDVMEFYLG", "soluble fraction (log2)": 0.0465},
      {"sequence": "HMPKRSKDEAELEFLEMLRDNQVDSTWSFGKIISQLGSTDPRYWMVDDDPLWKRQIFEKYLSNR", "soluble fraction (log2)": -0.228},
      {"sequence": "HMPLDISDDSKAVLKLLKNDSNELNTVKSASGLSNKKWDKTIKELTKNKIVSVSKTEDGLYIHLI", "soluble fraction (log2)": 0.438},
      {"sequence": "HMPLDYQELRNISPQAARQAILQILKANKGNVSQTARMLGITRKTVYKAMAKREAGNLDDGSRAPK", "soluble fraction (log2)": -1.41},
      {"sequence": "HMPLLELPDDFYPAWKPKTIYVQGQRIMLDGVAFEAKWWTQGDNPASGQADPGSSPWRTLTQEEIAKLLE", "soluble fraction (log2)": -1.52},
      {"sequence": "HMPLLKIGAQGHDVRVVQEALQRAGYAIEGVTGIFDEATREAVLAFQRDQQLTESGTVDRATWHALRR", "soluble fraction (log2)": -0.0683}
    ]}
  ]
}
